B5: Flag-tagged MED13 IDRc (residues 500–1069), expressed in 293-F cells (domain or fragment, human, UniProt Q9UHV7 500-1069, looked up)
chain: SAPDSQVRFSNIRTNDVAKTPQMHGTEMANSPQPPPLSPHPCDVVDEGVTKTPSTPQSQHFYQMPTPDPLVPSKPMEDRIDSLSQSFPPQYQEAVEPTVYVGTAVNLEEDEANIAWKYYKFPKKKDVEFLPPQLPSDKFKDDPVGPFGQESVTSVTELMVQCKKPLKVSDELVQQYQIKNQCLSAIASDAEQEPKIDPYAFVEGDEEFLFPDKKDRQNSEREAGKKHKVEDGTSSVTVLSHEEDAMSLFSPSIKQDAPRPTSHARPPSTSLIYDSDLAVSYTDLDNLFNSDEDELTPGSKKSANGSDDKASCKESKTGNLDPLSCISTADLHKMYPTPPSLEQHIMGFSPMNMNNKEYGSMDTTPGGTVLEGNSSSIGAQFKIEVDEGFCSPKPSEIKDFSYVYKPENCQILVGCSMFAPLKTLPSQYLPPIKLPEECIYRQSWTVGKLELLSSGPSMPFIKEGDGSNMDQEYGTAYTPQTHTSFGMPPSSAPPSNSGAGILPSPSTPRFPTPRTPRTPRTPRGAGGPASAQGSVKYENSDLYSPASTPSTCRPLNSVEPATVPSIPEAH

Assay [1] addresses CDK8-Flag (recombinant CKM subunit) (human, UniProt P49336 1-464). The assay is described as follows: cryo-EM structure.
Assay [2] has as its target MED12 (human (endogenous in 293-F), UniProt Q93074 1-2177). Briefly: cross-linking.
Assay [3] has as its target B5. The assay is described as follows: cryo-EM structure.
The target of assay [4] is MED14 (human (endogenous in 293-F), UniProt O60244 1-1454). Briefly: cryo-EM structure.
The target of assay [5] is T1, MED17 (human (endogenous in 293-F), UniProt Q9NVC6 1-651).
T1 sequence (looked up): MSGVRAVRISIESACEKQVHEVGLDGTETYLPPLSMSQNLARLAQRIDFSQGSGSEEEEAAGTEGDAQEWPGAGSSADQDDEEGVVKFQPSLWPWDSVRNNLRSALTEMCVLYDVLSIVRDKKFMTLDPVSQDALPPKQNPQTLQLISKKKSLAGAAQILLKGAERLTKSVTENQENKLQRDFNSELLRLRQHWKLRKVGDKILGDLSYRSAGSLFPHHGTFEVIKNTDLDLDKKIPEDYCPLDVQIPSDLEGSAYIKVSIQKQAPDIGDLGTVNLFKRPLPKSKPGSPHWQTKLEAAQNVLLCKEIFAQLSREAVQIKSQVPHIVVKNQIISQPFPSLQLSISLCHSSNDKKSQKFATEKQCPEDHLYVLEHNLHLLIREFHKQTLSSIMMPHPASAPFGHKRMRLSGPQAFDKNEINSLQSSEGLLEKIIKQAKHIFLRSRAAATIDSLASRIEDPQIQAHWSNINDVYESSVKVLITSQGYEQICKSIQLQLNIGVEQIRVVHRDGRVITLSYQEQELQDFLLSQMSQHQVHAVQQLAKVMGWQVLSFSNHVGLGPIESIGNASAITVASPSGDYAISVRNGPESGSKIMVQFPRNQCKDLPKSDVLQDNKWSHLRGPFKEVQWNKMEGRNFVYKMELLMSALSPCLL
Briefly: cryo-EM structure.

For assay [6], the target named is T2, MED13 (human (endogenous in 293-F), UniProt Q9UHV7 1-2174). The assay is described as follows: cross-linking.
Assay [7] has as its target T2, MED13. Briefly: cryo-EM structure.
Assay [8] concerns the target MED12L (human (endogenous in 293-F), UniProt Q86YW9 1-2145). The assay is described as follows: cross-linking.

The results in this text go back to paper PMC11832219 (Molecular cell, 2024).

MED12, sequence (Q93074 whole entry): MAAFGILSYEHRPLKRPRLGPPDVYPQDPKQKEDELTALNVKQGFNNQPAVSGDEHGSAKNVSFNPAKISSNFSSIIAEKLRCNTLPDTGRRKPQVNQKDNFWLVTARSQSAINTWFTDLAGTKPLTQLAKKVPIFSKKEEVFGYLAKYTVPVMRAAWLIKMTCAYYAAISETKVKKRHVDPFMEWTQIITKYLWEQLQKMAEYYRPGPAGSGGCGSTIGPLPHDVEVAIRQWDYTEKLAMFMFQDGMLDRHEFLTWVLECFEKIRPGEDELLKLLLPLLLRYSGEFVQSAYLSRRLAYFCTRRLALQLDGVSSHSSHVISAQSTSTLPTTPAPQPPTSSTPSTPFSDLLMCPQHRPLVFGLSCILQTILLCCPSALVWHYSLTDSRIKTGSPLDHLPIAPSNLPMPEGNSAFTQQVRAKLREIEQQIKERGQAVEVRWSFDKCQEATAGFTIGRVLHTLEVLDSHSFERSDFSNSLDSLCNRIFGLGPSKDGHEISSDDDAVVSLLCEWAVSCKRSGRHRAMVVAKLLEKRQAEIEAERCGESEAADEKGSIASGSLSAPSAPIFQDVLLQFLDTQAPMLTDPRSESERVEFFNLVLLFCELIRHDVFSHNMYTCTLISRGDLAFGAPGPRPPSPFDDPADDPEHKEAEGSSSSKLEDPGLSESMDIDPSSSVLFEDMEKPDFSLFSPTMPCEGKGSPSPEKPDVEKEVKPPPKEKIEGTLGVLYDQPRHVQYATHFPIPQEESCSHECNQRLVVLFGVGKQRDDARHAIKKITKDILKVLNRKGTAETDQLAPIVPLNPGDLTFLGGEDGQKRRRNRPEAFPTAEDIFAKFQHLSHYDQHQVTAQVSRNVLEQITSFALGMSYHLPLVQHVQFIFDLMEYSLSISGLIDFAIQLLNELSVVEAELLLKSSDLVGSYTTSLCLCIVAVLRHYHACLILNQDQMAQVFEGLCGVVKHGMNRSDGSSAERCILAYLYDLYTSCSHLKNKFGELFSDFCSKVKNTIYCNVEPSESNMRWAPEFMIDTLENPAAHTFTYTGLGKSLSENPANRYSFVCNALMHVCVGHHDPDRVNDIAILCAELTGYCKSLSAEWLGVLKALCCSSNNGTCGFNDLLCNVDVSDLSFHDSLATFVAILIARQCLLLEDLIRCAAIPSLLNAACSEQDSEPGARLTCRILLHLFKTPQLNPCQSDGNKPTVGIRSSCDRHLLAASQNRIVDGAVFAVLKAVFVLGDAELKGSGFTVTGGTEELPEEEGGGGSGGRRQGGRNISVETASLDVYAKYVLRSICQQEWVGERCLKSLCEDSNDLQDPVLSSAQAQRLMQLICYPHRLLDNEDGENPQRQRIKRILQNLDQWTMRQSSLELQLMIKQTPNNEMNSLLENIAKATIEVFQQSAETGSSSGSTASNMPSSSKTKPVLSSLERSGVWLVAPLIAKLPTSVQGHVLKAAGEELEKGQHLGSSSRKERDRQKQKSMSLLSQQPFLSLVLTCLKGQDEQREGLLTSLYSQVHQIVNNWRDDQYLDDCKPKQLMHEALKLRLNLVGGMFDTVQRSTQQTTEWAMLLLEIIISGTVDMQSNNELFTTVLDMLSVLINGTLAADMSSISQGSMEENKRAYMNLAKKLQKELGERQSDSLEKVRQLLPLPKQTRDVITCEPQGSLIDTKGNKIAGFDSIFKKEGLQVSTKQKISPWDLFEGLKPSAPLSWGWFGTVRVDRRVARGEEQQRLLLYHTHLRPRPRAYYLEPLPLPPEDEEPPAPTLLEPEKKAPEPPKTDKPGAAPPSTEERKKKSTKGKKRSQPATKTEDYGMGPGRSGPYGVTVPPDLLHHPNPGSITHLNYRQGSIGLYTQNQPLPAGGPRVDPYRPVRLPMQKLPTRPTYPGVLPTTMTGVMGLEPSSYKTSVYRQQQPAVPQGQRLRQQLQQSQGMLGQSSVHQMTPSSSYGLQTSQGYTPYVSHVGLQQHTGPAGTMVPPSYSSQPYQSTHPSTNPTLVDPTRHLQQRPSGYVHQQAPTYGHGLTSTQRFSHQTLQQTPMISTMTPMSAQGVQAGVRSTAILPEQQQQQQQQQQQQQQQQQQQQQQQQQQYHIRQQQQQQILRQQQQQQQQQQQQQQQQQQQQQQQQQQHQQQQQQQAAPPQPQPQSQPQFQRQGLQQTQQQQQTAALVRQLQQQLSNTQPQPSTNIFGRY
T2 sequence (Q9UHV7 whole entry): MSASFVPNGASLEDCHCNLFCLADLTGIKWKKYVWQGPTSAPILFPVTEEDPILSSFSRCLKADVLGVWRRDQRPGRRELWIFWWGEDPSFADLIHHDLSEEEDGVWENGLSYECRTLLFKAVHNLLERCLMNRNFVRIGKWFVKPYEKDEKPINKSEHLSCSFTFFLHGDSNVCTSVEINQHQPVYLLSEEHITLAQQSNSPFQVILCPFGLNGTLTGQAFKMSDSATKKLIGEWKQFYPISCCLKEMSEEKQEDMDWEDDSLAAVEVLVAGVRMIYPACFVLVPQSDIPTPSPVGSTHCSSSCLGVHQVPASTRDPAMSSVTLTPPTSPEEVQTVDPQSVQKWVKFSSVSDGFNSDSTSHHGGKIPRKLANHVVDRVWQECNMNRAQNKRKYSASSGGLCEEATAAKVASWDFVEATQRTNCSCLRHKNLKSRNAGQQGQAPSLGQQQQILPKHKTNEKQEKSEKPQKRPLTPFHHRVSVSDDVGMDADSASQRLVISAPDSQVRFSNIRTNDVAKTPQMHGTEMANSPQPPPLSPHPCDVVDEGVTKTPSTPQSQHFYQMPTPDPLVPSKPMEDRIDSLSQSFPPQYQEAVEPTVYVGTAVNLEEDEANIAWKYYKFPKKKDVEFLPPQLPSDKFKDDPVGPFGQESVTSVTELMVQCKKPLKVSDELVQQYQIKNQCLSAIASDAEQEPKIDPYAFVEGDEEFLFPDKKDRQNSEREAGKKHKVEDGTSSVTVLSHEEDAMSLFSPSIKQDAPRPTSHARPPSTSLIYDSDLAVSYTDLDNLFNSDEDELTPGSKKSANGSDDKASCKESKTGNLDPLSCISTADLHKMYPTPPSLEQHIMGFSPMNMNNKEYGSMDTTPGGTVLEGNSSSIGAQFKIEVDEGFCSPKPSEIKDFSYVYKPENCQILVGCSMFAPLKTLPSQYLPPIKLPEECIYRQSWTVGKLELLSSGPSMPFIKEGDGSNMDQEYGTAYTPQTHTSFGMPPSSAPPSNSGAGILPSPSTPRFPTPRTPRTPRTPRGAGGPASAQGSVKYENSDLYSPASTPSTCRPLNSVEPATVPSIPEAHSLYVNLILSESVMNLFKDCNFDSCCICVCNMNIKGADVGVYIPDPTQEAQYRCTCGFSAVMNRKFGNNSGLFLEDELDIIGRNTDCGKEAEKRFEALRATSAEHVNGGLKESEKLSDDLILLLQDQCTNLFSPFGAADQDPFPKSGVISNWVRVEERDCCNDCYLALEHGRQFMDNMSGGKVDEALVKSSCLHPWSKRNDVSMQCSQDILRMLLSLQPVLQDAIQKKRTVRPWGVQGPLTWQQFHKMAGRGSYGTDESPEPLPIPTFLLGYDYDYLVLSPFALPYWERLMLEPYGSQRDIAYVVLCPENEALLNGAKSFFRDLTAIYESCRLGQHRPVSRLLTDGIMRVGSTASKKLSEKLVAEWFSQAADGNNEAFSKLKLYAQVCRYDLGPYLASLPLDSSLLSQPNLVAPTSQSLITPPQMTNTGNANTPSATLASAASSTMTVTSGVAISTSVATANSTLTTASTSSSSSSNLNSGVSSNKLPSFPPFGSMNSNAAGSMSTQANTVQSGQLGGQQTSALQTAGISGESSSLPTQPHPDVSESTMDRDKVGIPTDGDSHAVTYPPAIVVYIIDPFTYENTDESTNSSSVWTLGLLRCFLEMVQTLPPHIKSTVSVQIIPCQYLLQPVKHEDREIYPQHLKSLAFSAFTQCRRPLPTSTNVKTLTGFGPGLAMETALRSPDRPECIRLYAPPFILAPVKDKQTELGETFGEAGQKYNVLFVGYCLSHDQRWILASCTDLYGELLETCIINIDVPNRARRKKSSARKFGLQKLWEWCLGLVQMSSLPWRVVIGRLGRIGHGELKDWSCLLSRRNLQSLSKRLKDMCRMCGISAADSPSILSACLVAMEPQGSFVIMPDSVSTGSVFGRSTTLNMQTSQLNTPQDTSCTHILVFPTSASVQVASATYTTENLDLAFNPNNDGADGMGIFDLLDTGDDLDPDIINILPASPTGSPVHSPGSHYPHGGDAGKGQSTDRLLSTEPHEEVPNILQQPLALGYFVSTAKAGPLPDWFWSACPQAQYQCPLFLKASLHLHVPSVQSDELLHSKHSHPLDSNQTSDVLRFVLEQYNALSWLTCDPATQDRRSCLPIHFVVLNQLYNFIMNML
CDK8-Flag (recombinant CKM subunit), sequence (P49336 whole entry): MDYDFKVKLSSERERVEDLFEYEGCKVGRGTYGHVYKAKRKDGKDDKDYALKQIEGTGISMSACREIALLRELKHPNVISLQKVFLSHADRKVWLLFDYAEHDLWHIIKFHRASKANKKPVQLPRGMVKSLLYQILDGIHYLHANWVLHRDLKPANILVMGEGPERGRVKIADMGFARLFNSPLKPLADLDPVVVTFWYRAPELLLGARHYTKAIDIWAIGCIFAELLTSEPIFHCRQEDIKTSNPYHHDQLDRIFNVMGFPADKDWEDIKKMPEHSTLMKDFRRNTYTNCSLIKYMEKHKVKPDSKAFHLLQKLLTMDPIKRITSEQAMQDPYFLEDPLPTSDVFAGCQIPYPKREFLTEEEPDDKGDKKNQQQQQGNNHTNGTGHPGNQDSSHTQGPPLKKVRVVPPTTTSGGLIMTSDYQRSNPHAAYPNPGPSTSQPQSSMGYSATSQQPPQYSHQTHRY

B1: CCNC-6xHis (recombinant CKM subunit) (natural protein, human)
chain: MAGNFWQSSHYLQWILDKQDLLKERQKDLKFLSEEEYWKLQIFFTNVIQALGEHLKLRQQVIATATVYFKRFYARYSLKSIDPVLMAPTCVFLASKVEEFGVVSNTRLIAAATSVLKTRFSYAFPKEFPYRMNHILECEFYLLELMDCCLIVYHPYRPLLQYVQDMGQEDMLLPLAWRIVNDTYRTDLCLLYPPFMIALACLHVACVVQQKDARQWFAELSVDMEKILEIIRVILKLYEQWKNFDERKEMATILSKMPKPKPPPNSEGEQGPNGSQNSSYSQS
As for B1, the binding result in assay [1] is given as “binds”.

B2: CCNC (natural protein, human (endogenous in 293-F), UniProt P24863 1-283, looked up)
chain: MAGNFWQSSHYLQWILDKQDLLKERQKDLKFLSEEEYWKLQIFFTNVIQALGEHLKLRQQVIATATVYFKRFYARYSLKSIDPVLMAPTCVFLASKVEEFGVVSNTRLIAAATSVLKTRFSYAFPKEFPYRMNHILECEFYLLELMDCCLIVYHPYRPLLQYVQDMGQEDMLLPLAWRIVNDTYRTDLCLLYPPFMIALACLHVACVVQQKDARQWFAELSVDMEKILEIIRVILKLYEQWKNFDERKEMATILSKMPKPKPPPNSEGEQGPNGSQNSSYSQS
Regarding B2, in assay [2], the binding result is listed as “binds”.

B3: MED8 (natural protein, human (endogenous in 293-F), UniProt Q96G25 1-268, looked up)
chain: MQREEKQLEASLDALLSQVADLKNSLGSFICKLENEYGRLTWPSVLDSFALLSGQLNTLNKVLKHEKTPLFRNQVIIPLVLSPDRDEDLMRQTEGRVPVFSHEVVPDHLRTKPDPEVEEQEKQLTTDAARIGADAAQKQIQSLNKMCSNLLEKISKEERESESGGLRPNKQTFNPTDTNALVAAVAFGKGLSNWRPSGSSGPGQAGQPGAGTILAGTSGLQQVQMAGAPSQQQPMLSGVQMAQAGQPGKMPSGIKTNIKSASMHPYQR
For B3, in assay [3], the binding result is “binds”.

B4: MED7 (natural protein, human (endogenous in 293-F), UniProt O43513 1-233, looked up)
chain: MGEPQQVSALPPPPMQYIKEYTDENIQEGLAPKPPPPIKDSYMMFGNQFQCDDLIIRPLESQGIERLHPMQFDHKKELRKLNMSILINFLDLLDILIRSPGSIKREEKLEDLKLLFVHVHHLINEYRPHQARETLRVMMEVQKRQRLETAERFQKHLERVIEMIQNCLASLPDDLPHSEAGMRVKTEPMDADDSNNCTGQNEHQRENSGHRRDQIIEKDAALCVLIDEMNERP
For B4, in assay [3], the binding result is “binds”.

As for B5, the binding result in assay [4] and in assay [5] was “binds” each time.

B6: MED21 (natural protein, human (endogenous in 293-F), UniProt Q13503 1-144, looked up)
chain: MADRLTQLQDAVNSLADQFCNAIGVLQQCGPPASFNNIQTAINKDQPANPTEEYAQLFAALIARTAKDIDVLIDSLPSEESTAALQAASLYKLEEENHEAATCLEDVVYRGDMLLEKIQSALADIAQSQLKTRSGTHSQSLPDS
As to B6, the binding result in assay [3] is listed as “binds”.

B7: MED31 (natural protein, human (endogenous in 293-F), UniProt Q9Y3C7 1-131, looked up)
chain: MAAAVAMETDDAGNRLRFQLELEFVQCLANPNYLNFLAQRGYFKDKAFVNYLKYLLYWKDPEYAKYLKYPQCLHMLELLQYEHFRKELVNAQCAKFIDEQQILHWQHYSRKRMRLQQALAEQQQQNNTSGK
With B7, the binding result in assay [6] is reported as “binds”.

B8: MED19 (natural protein, human (endogenous in 293-F), UniProt A0JLT2 1-244, looked up)
chain: MENFTALFGAQADPPPPPTALGFGPGKPPPPPPPPAGGGPGTAPPPTAATAPPGADKSGAGCGPFYLMRELPGSTELTGSTNLITHYNLEQAYNKFCGKKVKEKLSNFLPDLPGMIDLPGSHDNSSLRSLIEKPPILSSSFNPITGTMLAGFRLHTGPLPEQCRLMHIQPPKKKNKHKHKQSRTQDPVPPETPSDSDHKKKKKKKEEDPDRKRKKKEKKKKKNRHSPDHPGMGSSQASSSSSLR
B8: the binding result in assay [7] and in assay [2] was “binds” in each case.

B9: MED6 (natural protein, human (endogenous in 293-F), UniProt O75586 1-246, looked up)
chain: MAAVDIRDNLLGISWVDSSWIPILNSGSVLDYFSERSNPFYDRTCNNEVVKMQRLTLEHLNQMVGIEYILLHAQEPILFIIRKQQRQSPAQVIPLADYYIIAGVIYQAPDLGSVINSRVLTAVHGIQSAFDEAMSYCRYHPSKGYWWHFKDHEEQDKVRPKAKRKEEPSSIFQRQRVDALLLDLRQKFPPKFVQLKPGEKPVPVDQTKKEAEPIPETVKPEEKETTKNVQQTVSAKGPPEKRMRLQ
In the case of B9, in assay [3], the binding result was “binds”.

B10: MED10 (natural protein, human (endogenous in 293-F), UniProt Q9BTT4 1-135, looked up)
chain: MAEKFDHLEEHLEKFVENIRQLGIIVSDFQPSSQAGLNQKLNFIVTGLQDIDKCRQQLHDITVPLEVFEYIDQGRNPQLYTKECLERALAKNEQVKGKIDTMKKFKSLLIQELSKVFPEDMAKYRSIRGEDHPPS
On to B10, for which the binding result in assay [6], in assay [2] and in assay [8] was “binds” each time.
